These are literature values, as cited in publication PMC5725453.

pKd: −log10 of the molar value.

The target in this data set is PI4KB (Homo sapiens) (UniProt Q9UBF8).
Sequence of UniProt Q9UBF8 (Q9UBF8 2-816): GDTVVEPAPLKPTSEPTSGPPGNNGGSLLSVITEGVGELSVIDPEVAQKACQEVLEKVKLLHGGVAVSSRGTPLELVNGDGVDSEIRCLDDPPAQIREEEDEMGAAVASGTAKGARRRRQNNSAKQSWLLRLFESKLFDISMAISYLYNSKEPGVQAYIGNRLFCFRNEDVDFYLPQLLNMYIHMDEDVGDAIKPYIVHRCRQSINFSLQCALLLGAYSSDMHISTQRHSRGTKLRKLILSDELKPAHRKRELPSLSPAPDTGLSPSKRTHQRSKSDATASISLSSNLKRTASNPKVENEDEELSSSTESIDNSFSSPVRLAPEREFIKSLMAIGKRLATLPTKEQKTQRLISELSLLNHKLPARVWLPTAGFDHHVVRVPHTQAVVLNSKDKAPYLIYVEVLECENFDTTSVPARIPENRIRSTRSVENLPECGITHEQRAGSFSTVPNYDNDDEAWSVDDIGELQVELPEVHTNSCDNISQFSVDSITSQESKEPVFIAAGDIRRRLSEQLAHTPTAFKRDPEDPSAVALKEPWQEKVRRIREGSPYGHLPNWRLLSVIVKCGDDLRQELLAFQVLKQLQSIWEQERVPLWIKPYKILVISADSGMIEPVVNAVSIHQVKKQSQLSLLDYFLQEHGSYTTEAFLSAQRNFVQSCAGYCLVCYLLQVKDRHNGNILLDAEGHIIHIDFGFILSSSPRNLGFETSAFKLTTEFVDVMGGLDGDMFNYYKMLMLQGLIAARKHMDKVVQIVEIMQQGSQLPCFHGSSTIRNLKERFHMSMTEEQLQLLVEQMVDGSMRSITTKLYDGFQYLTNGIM

For ACBD3 (from UniProt Q9H3P7), the negative logarithm of the Kd (pKd) – broadly, −log10 of the Kd, conventionally taken in molar units – was 6.49.
